Assay results reported in the supplement of paper PMC9170038.

System: MS2 coat protein
Assay: apparent KD of MS2 coat protein; designed switch direction (-1 OFF switch, 1 ON switch): 1; higher = weaker reporter binding
In short: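 RNA switches sharing common flanks were transcribed by stalled E. coli RNA polymerase on Illumina chips. A doubling series of SNAP-549-labelled MS2 coat protein, from 0.7 or 1.5 nM to 3 µM, was applied in Tris-HCl pH 7.5 buffer with KCl, MgCl2, BSA, DTT, tRNA and Tween-20. Each step lasted 0.8–1.5 h at the bottom of the series and 10–20 min at the top. Normalised cluster fluorescence was curve-fitted, giving apparent KD as the per-design median over clusters.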

[1] = input ligand: microRNA oligo, concentration not stated
[2] = Eterna round: R95, input ligand: FMN 200 uM
[3] = Eterna round: R95, input ligand: microRNA oligo, concentration not stated
[4] = Eterna round: R95, input ligand: none

| Sequence | apparent KD of MS2 coat protein (input ligand: FMN 200 uM) [nM] | apparent KD of MS2 coat protein [1] [nM] | apparent KD of MS2 coat protein (input ligand: none) [nM] | apparent KD of MS2 coat protein [2] [nM] | apparent KD of MS2 coat protein [3] [nM] | apparent KD of MS2 coat protein [4] [nM] |
| --- | --- | --- | --- | --- | --- | --- |
| UUGCGGGCUUGAGGAUAUUGAGUACAUAUGUUUAACAUGAGGAUCACCCAUGUGGGUUGCGGUAUCGAGAAGGUGGCUUCCUGC [salish99_SSNG2_r04_813] (Eterna round: R96, puzzle: Same State NG 2) | 81.9 | 82.7 | 74.8 | – | – | – |
| UUAGCGACGGAAGGAUAUUGGACGCUAACAUGAGGAUCACCCAUGUAGAGGUCCUACCAACAGCGCAAGAAGGUCCGAUCAGCA [Eternabot solution 13] (Eterna round: R96, puzzle: Same State NG 2) | 22.7 | 8.94 | 13.3 | – | – | – |
| CCGCUCCGUGGAGGAUAUGGGCCUGCCCGGGAUACCGAGCCUAACACAUGAGGAUCACCCAUGUCCCAGAAGGCCGCUGGAGCC [Inusaron] (Eterna round: R96, puzzle: Same State NG 2) | 30.7 | 52.8 | 90.7 | – | – | – |
| AGCUAAAACGAAGGAUAUACUGACAUGAGGAUCACCCAUGUCUACAUGAUUUAUUGUGAUCACAUGUAGAAGGUCGUACUAACA [SameState NG2 #22] (Eterna round: R96, puzzle: Same State NG 2) | – | 58.5 | – | – | – | – |
| GCUAGAAAUAAAGCCAACAUGAGGAUCACCCAUGUAUGUUGGCAGGAUAUCGUUUGCAAAGCAAACGAGAAGGGCUAAACUAGC [Mat - Same State NG 3 - JL Mod - D5] (Eterna round: R96, puzzle: Same State NG 3) | 141 | 138 | 147 | – | – | – |
| AGUCCAGGCUGACCUGGACAAAAGCAUGUACAUGAGGAUCACCCAUGUCAUGUACAAGCUUUUUGCUCGUCUUAAAA [Mat - hsa-mir-208a - Mod of JL - D16] (puzzle: Sensor for hsa-mir-208a) | – | – | – | 701 | 14.3 | 637 |
| UUAUACUCGAGAGGAUAUGCAGAGGAUCACCCUGCAGAAGGCUCGUUAGAGAGGAUAUGCAGAGGAUCACCCUGCAGAAGGCUC [pwkr ssNG DX.24] (Eterna round: R96, puzzle: Same State NG 1) | 45.7 | 16.1 | 37.4 | – | – | – |
| AUAAAACAUGAGGAUCACCCAUGUCAACAAAGUCGAGGAUAUGGGCUAAUAAAAUAAGAACCAGAAGGCGAAUAAU [salish99_ss1_r3_027] (puzzle: Same State 1) | – | – | – | 26.2 | 152 | 146 |
| CGUUCAUACUCAGGACGGAGAGUAGAGGAACAUGAGGAUCACCCAUGUAUGAGCUUUUUGCUCGUCAUGAACAGGAG [JR_SHM208a_Sub011] (puzzle: Sensor for hsa-mir-208a) | – | – | – | 103 | 72.2 | 117 |
| GUGGUCAGACAUGAGGAUCACCCAUGUGGAAUAAAUAAGGAACAGGAUAUCUAAUAUAGGAUAUAAGAGAAGGGUUGGUUGGUG (Eterna round: R96, puzzle: Same State NG 3) | – | 61.9 | – | – | – | – |
| AUUAAUAAUCUAGGAUAUCACGUCGAAUAGACGUGAGAAGGAGAUCAUAACAUGAGGAUCACCCAUGUAUUACAUGAAGUUAAU [SSNG1/7-B1] (Eterna round: R96, puzzle: Same State NG 1) | 27.5 | 29.9 | 34.8 | – | – | – |
| UGUUGUAUUACAGGAUAUCUAUUGUUGUUAUUUAGAGAAGGGUAUUCACAUGAGGAUCACCCAUGUAUAUACGAGGAAGUUGUG [JMF's solution 75] (Eterna round: R96, puzzle: Same State NG 1) | – | 41.9 | – | – | – | – |
| GUCCAAAACACAGGAUAUCCCAGUCAUGAUCUGGGAGAAGGGUGGCCACAUGAGGAUCACCCAUGUGAAGUGCGAGAGGCACGA [Inerraat] (Eterna round: R96, puzzle: Same State NG 1) | 258 | 827 | 629 | – | – | – |
| CGACGCUGUCGAGAGGAUAUGCGGUGAUGGACAUGAGGAUCACCCAUGUUAGCGAUAGCAUUACGGUAGAAGGCUCUACAGCUGU [Soteed Omei mod 5] (puzzle: Same State 2) | – | – | – | 20.4 | 202 | 118 |
| GCUAGGAUAUGCAGAGGAUCACCCUGUAGAAGGAGCAUUAGCUAGGAUAUGCAGAGGAUCACCCUGUAGAAGGAGCACUACUCU [pwkr ssNG3 DX 2xF5 +2xFMN.1] (Eterna round: R96, puzzle: Same State NG 3) | 445 | 205 | 248 | – | – | – |
